Measured values taken from paper PMC9078787.

Molecular target: Fcγ receptor IIIa (UniProt P08637)
Sequence of UniProt P08637 (P08637 17-208): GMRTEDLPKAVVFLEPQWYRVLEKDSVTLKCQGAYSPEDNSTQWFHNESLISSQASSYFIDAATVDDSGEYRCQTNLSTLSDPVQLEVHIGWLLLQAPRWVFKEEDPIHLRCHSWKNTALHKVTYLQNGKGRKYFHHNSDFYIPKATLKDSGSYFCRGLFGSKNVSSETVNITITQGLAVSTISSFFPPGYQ

Pertuzumab (trademark: Perjeta®) (antibody)
ADCC reporter-gene assay (Jurkat-CD16a-FcεRIγ-NFAT-luc effector cells, SK-BR-3 target cells), relative activity by EC50; batch H0323B07 (%afucose 4.2), the reference standard (%relative activity): 100
ADCC reporter-gene assay, relative activity by EC50; batch H0324B01 (%afucose 4.1) (%relative activity): 96
ADCC reporter-gene assay, relative activity by EC50; batch H0337B01 (%afucose 2.6) (%relative activity): 82
ADCC reporter-gene assay, relative activity by EC50; batch H0340B01 (%afucose 2.4) (%relative activity): 73
ADCC reporter-gene assay, relative activity by EC50; batch H0371B01 (%afucose 2.1) (%relative activity): 91
ADCC reporter-gene assay, relative activity by EC50; batch H0382B04 (%afucose 3.7) (%relative activity): 84
ADCC reporter-gene assay, relative activity by EC50; batch H0383B01 (%afucose 1.8) (%relative activity): 78
ADCC reporter-gene assay, relative activity by EC50; batch H0388B01 (%afucose 2.3) (%relative activity): 81
ADCC reporter-gene assay, relative activity by EC50; batch H0389B01 (%afucose 1.9) (%relative activity): 76
ADCC reporter-gene assay, relative activity by EC50; batch H0391B01 (%afucose 2.1) (%relative activity): 71
ADCC reporter-gene assay, relative activity by EC50; batch H0394B01 (%afucose 2.1) (%relative activity): 73
ADCC reporter-gene assay, relative activity by EC50; batch H0395B02 (%afucose 2.1) (%relative activity): 76
ADCC reporter-gene assay, relative activity by EC50; batch H0396B01 (%afucose 2.1) (%relative activity): 71
ADCC reporter-gene assay, relative maximum response; batch H0323B07 (%afucose 4.2), the reference standard (%relative activity): 100
ADCC reporter-gene assay, relative maximum response; batch H0324B01 (%afucose 4.1) (%relative activity): 103
ADCC reporter-gene assay, relative maximum response; batch H0337B01 (%afucose 2.6) (%relative activity): 86
ADCC reporter-gene assay, relative maximum response; batch H0340B01 (%afucose 2.4) (%relative activity): 88
ADCC reporter-gene assay, relative maximum response; batch H0371B01 (%afucose 2.1) (%relative activity): 72
ADCC reporter-gene assay, relative maximum response; batch H0382B04 (%afucose 3.7) (%relative activity): 96
ADCC reporter-gene assay, relative maximum response; batch H0383B01 (%afucose 1.8) (%relative activity): 70
ADCC reporter-gene assay, relative maximum response; batch H0388B01 (%afucose 2.3) (%relative activity): 74
ADCC reporter-gene assay, relative maximum response; batch H0389B01 (%afucose 1.9) (%relative activity): 70
ADCC reporter-gene assay, relative maximum response; batch H0391B01 (%afucose 2.1) (%relative activity): 78
ADCC reporter-gene assay, relative maximum response; batch H0394B01 (%afucose 2.1) (%relative activity): 74
ADCC reporter-gene assay, relative maximum response; batch H0395B02 (%afucose 2.1) (%relative activity): 75
ADCC reporter-gene assay, relative maximum response; batch H0396B01 (%afucose 2.1) (%relative activity): 80
